Key:
Tau Isoform 352 [1] = molecular target: T1, Tau Isoform 352 (human, UniProt P10636 2-758); assay: not named in the sentence (summary of antibody generation)
T1 construct: Obtained as a lyophilized purified isoform; also called Tau 352; tau352

Tau Isoform 383 [2] = molecular target: T2, Tau Isoform 383 (human, UniProt P10636 2-758); assay: ELISA, 100 ng or 50 ng coated tau isoform, antibody 1:1,000 and 1:10,000
T2 construct: Obtained as a lyophilized purified isoform; also called Tau 383; tau383
T2 sequence (P10636 other isoform, or with tags, fused parts or gaps limits assumed): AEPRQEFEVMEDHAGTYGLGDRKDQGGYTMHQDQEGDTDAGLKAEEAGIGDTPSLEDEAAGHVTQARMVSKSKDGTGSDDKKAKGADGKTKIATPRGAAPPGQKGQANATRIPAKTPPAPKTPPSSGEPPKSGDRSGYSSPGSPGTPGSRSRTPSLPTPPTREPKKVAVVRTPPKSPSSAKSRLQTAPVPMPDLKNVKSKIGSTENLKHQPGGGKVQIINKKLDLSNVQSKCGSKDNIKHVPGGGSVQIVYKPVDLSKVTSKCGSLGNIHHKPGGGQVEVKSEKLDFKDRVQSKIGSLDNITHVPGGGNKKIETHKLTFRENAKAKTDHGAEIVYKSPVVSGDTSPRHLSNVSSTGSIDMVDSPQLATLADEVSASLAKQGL
Experimental: More specifically, the 4G11 mAb was tested in an ELISA against 100 ng of each of the Tau isoforms at a 1:1,000 antibody dilution (FIG. 6A); against 100 ng of each of the Tau isoforms at a 1:10,000 antibody dilution (FIG. 6B); against 50 ng of each of the Tau isoforms at a 1:1,000 antibody dilution (FIG. 6C); and against 50 ng of each of the Tau isoforms at a 1:10,000 antibody dilution (FIG. 6D). […] The highest binding levels were found using 100 ng of the tau isoform with an antibody dilution of 1:1,000.
Antibody 4G11 was tested in an ELISA against 100 ng and 50 ng of the six human Tau isoform using antibodies dilutions of 1:1,000 and 1:10,000. Both 4G11 stored at −80° C. as well as a lyophilized form stored at ambient temperature were compared in this assay and the results are provided in FIGS. 6A-D (the left bar for each isoform are the results of the antibody stored at −80° C. and the right bar for each isoform is the lyophilized form, stored at 25° C.

Tau Isoform 441 = molecular target: T3, Tau Isoform 441 (human, UniProt P10636 2-758); assay: screening of hybridoma cell lines; assay not given
T3 construct: Obtained as a lyophilized purified isoform; also called tau441
T3 sequence (P10636 other isoform, or with tags, fused parts or gaps limits assumed): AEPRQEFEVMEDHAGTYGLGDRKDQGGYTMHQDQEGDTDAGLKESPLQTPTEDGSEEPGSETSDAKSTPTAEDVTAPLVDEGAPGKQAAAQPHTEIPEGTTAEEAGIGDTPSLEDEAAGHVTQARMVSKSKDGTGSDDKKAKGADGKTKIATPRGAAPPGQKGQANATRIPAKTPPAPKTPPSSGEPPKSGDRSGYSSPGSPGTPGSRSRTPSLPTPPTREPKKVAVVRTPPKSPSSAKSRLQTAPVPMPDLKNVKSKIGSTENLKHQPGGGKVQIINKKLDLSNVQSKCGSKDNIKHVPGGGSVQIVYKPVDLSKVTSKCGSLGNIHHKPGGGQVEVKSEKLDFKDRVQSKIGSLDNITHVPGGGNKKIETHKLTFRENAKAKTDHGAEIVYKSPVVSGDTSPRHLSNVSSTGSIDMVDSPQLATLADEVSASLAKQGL

Tau Isoform 410 = molecular target: T4, Tau Isoform 410 (human, UniProt P10636 2-758); assay: screening of hybridoma cell lines; assay not given
T4 construct: Obtained as a lyophilized purified isoform; also called Tau 410; tau410
T4 sequence (P10636 other isoform, or with tags, fused parts or gaps limits assumed): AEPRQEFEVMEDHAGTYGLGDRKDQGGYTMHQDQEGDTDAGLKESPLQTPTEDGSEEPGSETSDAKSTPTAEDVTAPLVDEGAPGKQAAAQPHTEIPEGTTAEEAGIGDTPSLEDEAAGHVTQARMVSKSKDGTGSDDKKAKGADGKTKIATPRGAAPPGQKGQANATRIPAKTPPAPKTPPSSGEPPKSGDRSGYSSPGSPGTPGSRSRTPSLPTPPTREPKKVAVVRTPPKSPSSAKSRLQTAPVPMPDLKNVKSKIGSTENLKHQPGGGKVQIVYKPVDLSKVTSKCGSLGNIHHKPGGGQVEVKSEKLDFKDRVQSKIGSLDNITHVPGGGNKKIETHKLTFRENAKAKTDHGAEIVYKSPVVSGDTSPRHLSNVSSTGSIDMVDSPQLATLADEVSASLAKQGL

Tau Isoform 381 = molecular target: T5, Tau Isoform 381 (human, UniProt P10636 2-758); assay: screening of hybridoma cell lines; assay not given
T5 construct: Obtained as a lyophilized purified isoform; also called tau381
T5 sequence (P10636 other isoform, or with tags, fused parts or gaps limits assumed): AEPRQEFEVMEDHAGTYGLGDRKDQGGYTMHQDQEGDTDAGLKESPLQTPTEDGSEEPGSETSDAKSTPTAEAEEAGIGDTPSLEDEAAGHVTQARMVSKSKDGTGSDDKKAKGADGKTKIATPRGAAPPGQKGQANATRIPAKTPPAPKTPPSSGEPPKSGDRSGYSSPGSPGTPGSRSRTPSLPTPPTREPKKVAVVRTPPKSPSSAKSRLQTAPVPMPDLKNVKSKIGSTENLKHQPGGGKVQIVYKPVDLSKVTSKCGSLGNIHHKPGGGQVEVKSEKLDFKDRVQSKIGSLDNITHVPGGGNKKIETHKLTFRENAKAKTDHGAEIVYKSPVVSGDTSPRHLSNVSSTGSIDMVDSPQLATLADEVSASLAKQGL

Tau Isoform 412 = molecular target: T6, Tau Isoform 412 (human, UniProt P10636 2-758); assay: screening of hybridoma cell lines; assay not given
T6 construct: Obtained as a lyophilized purified isoform; also called tau412
T6 sequence (P10636 other isoform, or with tags, fused parts or gaps limits assumed): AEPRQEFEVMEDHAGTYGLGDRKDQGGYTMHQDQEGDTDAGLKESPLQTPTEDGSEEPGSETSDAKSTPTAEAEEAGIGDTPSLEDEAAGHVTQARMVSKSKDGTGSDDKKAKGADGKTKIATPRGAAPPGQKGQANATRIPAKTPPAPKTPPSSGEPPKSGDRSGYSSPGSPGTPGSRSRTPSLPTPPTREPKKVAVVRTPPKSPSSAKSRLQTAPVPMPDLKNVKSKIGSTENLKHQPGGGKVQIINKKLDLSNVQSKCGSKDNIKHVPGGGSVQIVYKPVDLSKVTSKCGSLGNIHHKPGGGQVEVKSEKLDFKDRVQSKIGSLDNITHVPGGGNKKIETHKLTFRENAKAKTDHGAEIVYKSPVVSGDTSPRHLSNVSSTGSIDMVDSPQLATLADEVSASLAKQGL

Tau Isoform 352 [3] = molecular target: T1, Tau Isoform 352; assay: screening of hybridoma cell lines; assay not given
Tau Isoform 383 [4] = molecular target: T2, Tau Isoform 383; assay: screening of hybridoma cell lines; assay not given

Measured: binding result

T1 sequence (P10636 other isoform, or with tags, fused parts or gaps limits assumed): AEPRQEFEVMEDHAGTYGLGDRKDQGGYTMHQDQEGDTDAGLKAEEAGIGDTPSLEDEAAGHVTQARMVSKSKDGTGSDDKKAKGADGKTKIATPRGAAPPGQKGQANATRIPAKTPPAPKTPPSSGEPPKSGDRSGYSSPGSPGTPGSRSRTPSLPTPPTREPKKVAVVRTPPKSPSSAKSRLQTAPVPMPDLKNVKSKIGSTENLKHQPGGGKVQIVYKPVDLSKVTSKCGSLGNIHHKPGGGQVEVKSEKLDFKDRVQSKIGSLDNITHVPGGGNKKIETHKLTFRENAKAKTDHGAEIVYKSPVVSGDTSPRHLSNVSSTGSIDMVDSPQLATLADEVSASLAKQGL

B1: monoclonal antibody 4G11 (antibody, IgA, V domains shown)
VH: EVQLVESGGGLVQPKGSLKLSCAASGFTFNIYAMNWVRQAPGKGLEWVARIRSKSNNYATYYADSMKDRFTISRDDSQSMLYLQMNNLKTEDTAMYYCVRHGNYYFDYWGQGTTLTVSS
VL: ENVLTQSPAIMAASLGQKVTMTCSADSSVSSSYLNWYQQKSGASPKPLIHRTSNLASGVPARFSGSGSGTSYSLTISSVEAEDDATYYCQQWSGYPFIFTFGSGTKLEIK
notes: also called Tau 4G11; mAb 4G11
not listed: Tau Isoform 352 [3] | Tau Isoform 383 [4]
binds: all other assays above

B2: monoclonal antibody 1A6 (antibody, IgM, V domains shown)
VH: DVQLVESGGGLVQPGGSRKLSCAASGFTFSSFGMHWVRQVPEKGLEWVAYISSGSSTIYYADTVKGRFTISRDNPKNTLFLQMTSLRSEDTAMYYCASNQSPTGFAYWGQGTLVTVSA
VL: DVVMTQTPLSLPVSLGDQASISCRSSQSLVHSNGNTYLHWYLQKPGQSPKLLIYKVSNRFSGVPDRFSGSGSGTDFTLKISRVEAEDLGVYFCSQSTHVPLTFGAGTKLELK
notes: Mouse hybridoma antibody (h1A6, ATCC PTA-122038), from a mouse immunized with tau 352; also called Tau 1A6; mAb 1A6
not listed: Tau Isoform 352 [1] | Tau Isoform 383 [2]
binds: all other assays above

From patent US20190211086A1 (RPEPTIDE, published 2019)
